Literature values, collected in paper PMC4464172.

Target: CAII (Homo sapiens) (UniProt P00918)
Assay: isothermal titration calorimetry

Kd: 160 nM
Substance: NBCe1-A (from UniProt Q9Y6R1)
